Test results published in paper PMC6987189, “Native aggregation is a common feature among triosephosphate isomerases of different species” (Scientific Reports, 2020).

System: O=C[C@H](O)COP(=O)(O)O
Test: purified protein
Format: biochemical, Giardia duodenalis
Settings: GAP to DHAP direction, 25 °C, 100 mM TEA, 10 mM EDTA, 0.2 mM NADH, GAP 0.3 to 3 mM

**Q.** For GlTIM (Giardia duodenalis; C202A), which Km is on record?
**A.** 100 ± 10 µM

**Q.** And the kcat?
**A.** 3280 ± 103 s⁻¹

**Q.** What about the kcat/Km of the same substance?
**A.** 2.9e+07 M⁻¹ s⁻¹
